# Measured values as given in article PMC9001643 (Scientific Reports, 2022).
# Molecular target: the molecule itself
# Assay: crystal structure; His6-dmJMJD7.Mn(II).ligand complexes (2OG, succinate, N-oxalylglycine, 2,4-PDCA, N-oxalyl-D-alanine, N-oxalyl-D-phenylalanine); sitting drops at 25 °C, 0.1 M Bis-Tris pH 5.4, 0.3 M magnesium chloride, 18-23% PEG 3350; two molecules per asymmetric unit, space group P2_(1)
protein,measurement,value
"Drosophila melanogaster Jumonji domain-containing 7 (His6-dmJMJD7) (enzyme, UniProt Q9VU77 1-316, looked up, JMJD7 of Drosophila melanogaster, full length, aa 1-316, UniProt Q9VU77, cloned into pET28a; Homodimer in the crystals; the two monomers are covalently linked by a disulfide bond Cys37-Cys37'; Crystallised with Mn(II) in place of Fe(II) and with 2OG, succinate or a 2OG analogue; also called JMJD7_DROME; not shown: His6, N-terminal, kept) MSEVERALDVLLQEAEELCIGSSVVELDRIPTALEFCREFYSKNQPVVIRKALNWPAIGKWTPKYLIEALGDRSVDVAITPNGYADGLATQNGQEYFVLPLETKMKLSEVVRRLDDPTGAVHYIQKQNSNLSVDLPELAADLRVSDLDFAQQSFNKPPDAVNFWLGDERAVTSMHKDPYENVYCVISGHKDFVLIPPHQLSCVPRGIYPTGVYKTSDSGQFYIEPLRDEEGSDQFTEWVSVDPLSPDLAKYPEYARAKPLKVRVHAGDILYLPNYWFHHVSQSHKCIAVNFWYDLDYDSRYCYYRMLEQMTSARSG",stoichiometry N,2
